In the Immune Epitope Database (IEDB):

Legend:
[1] = biological target: HLA-A*02:02; test: IEDB peptide-MHC binding, cellular MHC/competitive/fluorescence; ≥ and ≤ were set here for values at or beyond the usual limits of such assays
[2] = biological target: HLA-A*02:03; test: as above
[3] = biological target: HLA-A*02:01; test: IEDB peptide-MHC binding, purified MHC/competitive/radioactivity; ≥ and ≤ were set here for values at or beyond the usual limits of such assays
[4] = biological target: HLA-A*02:06; test: as above
[5] = biological target: HLA-A*68:02; test: as above
[6] = biological target: HLA-A*02:06; test: IEDB peptide-MHC binding, cellular MHC/competitive/fluorescence; ≥ and ≤ were set here for values at or beyond the usual limits of such assays
[7] = biological target: HLA-A*68:02; test: as above
[8] = biological target: HLA-A*02:02; test: IEDB peptide-MHC binding, purified MHC/competitive/radioactivity; ≥ and ≤ were set here for values at or beyond the usual limits of such assays
[9] = biological target: HLA-A*02:01; test: IEDB peptide-MHC binding, cellular MHC/competitive/fluorescence; ≥ and ≤ were set here for values at or beyond the usual limits of such assays
[10] = source organism: Mammarenavirus guanaritoense
[11] = source organism: Vaccinia virus WR
[12] = source organism: Influenza A virus

| Sequence | IC50 [2, 11] | IC50 [7, 11] | IC50 [6, 11] | IC50 [8, 11] | IC50 [9, 11] | also measured |
| --- | --- | --- | --- | --- | --- | --- |
| CNYTRFWYI | – | – | – | – | – | IC50 [1, 10]: 10.1 µM; IC50 [2, 10]: 5.31 µM; IC50 [3, 10]: 1.66 µM; IC50 [4, 10]: 0.258 µM; IC50 [5, 10]: 0.344 µM |
| IMLIIFWFSL | – | – | – | – | – | IC50 ([2]; source organism: SARS-CoV1): 14.9 µM; IC50 ([6]; source organism: SARS-CoV1): 16.8 µM; IC50 ([7]; source organism: SARS-CoV1): ≥ 70 µM; IC50 ([3]; source organism: SARS-CoV1): 3.83 µM; IC50 ([8]; source organism: SARS-CoV1): 1.54 µM |
| GVLHTKFWI | 12.3 µM | 43.9 µM | – | – | – | IC50 [1, 11]: 16.6 µM; IC50 [3, 11]: 2.71 µM; IC50 [4, 11]: 0.417 µM |
| PIPMSRLFM | 9.13 µM | ≥ 70 µM | 31.4 µM | 3.89 µM | – | – |
| DIKYDNKLL | 49.8 µM | 24.8 µM | ≥ 70 µM | 1.42 µM | 26.5 µM | – |
| IVDKFGKNHI | 5.08 µM | 12.4 µM | 8.33 µM | 2.93 µM | 11.2 µM | – |
| CAVIPFDDI | 10 µM | – | – | – | 17 µM | IC50 [1, 11]: 15.8 µM; IC50 [4, 11]: 1.16 µM; IC50 [5, 11]: 0.023 µM |
| SAFDERRNRYL | – | – | – | – | – | IC50 [9, 12]: 17.8 µM; IC50 [2, 12]: 5.17 µM; IC50 [6, 12]: 34.7 µM; IC50 [7, 12]: 5.9 µM; IC50 [8, 12]: 1.28 µM |
| YLSKEDRIIT | 5.57 µM | 21.5 µM | 48.7 µM | 1.3 µM | 11.9 µM | – |
| FTHTTAFFNT | 10.2 µM | – | – | – | 9.94 µM | IC50 [1, 11]: 17.2 µM; IC50 [4, 11]: 0.051 µM; IC50 [5, 11]: 1.02 µM |
| SANMDWRSLT | 11.3 µM | 15.4 µM | 48.1 µM | 1.79 µM | 55.7 µM | – |
| ETQSGALEVL | 14.5 µM | – | – | – | 5.14 µM | IC50 [1, 11]: 5.31 µM; IC50 [4, 11]: 1.58 µM; IC50 [5, 11]: 0.058 µM |
| ALWDSNFFT | 28.2 µM | 7.41 µM | 23.1 µM | 1.06 µM | – | IC50 [3, 11]: 3.69 µM |
| NLYISDYKM | 25.3 µM | 14.9 µM | 11 µM | 2.79 µM | 6.17 µM | – |
| VVECLTVPNI | 19.6 µM | – | – | – | – | IC50 [1, 11]: 8.42 µM; IC50 [3, 11]: 4.28 µM; IC50 [4, 11]: 0.301 µM; IC50 [5, 11]: 3.75 µM |
| KISVEKIKQT | 8.96 µM | 11.2 µM | 21 µM | 1.23 µM | – | IC50 [3, 11]: 4.67 µM |
| VIVVPVIDRL | 59 µM | 31.4 µM | 11.1 µM | 4.57 µM | 14.8 µM | – |
